Key:
HeLa Kyoto [1] = experiment: solubility change mitosis vs G1/S (difference of NP-40 vs SDS log2 ratios) (log2 ratio difference); higher = more soluble in mitosis
HeLa Kyoto [2] = experiment: thermal stability score vs G1/S (z-score of summed log2 fold changes over temperatures); higher = more thermally stable than in G1/S
HeLa Kyoto [3] = experiment: melting temperature (median over replicates), in situ; higher = more thermally stable
HeLa Kyoto [4] = experiment: solubility in G1/S (NP-40 vs SDS abundance) (log2 ratio); higher = more soluble; details: cell cycle stage: G1/S
[5] = cell cycle stage: early G1 (4.5 h after nocodazole release)
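For melting temperature (median over replicates), in situ in this document: HeLa Kyoto cells synchronized by double thymidine or nocodazole block, proteins quantified by TMT10plex mass spectrometry, three independent biological replicates.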
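For solubility change mitosis vs G1/S (difference of NP-40 vs SDS log2 ratios) in this document: synchronized HeLa Kyoto cells (double thymidine block for G1/S, nocodazole release for mitosis), protein amounts in NP-40 versus SDS lysates quantified by mass spectrometry, three biological replicates.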
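For solubility in G1/S (NP-40 vs SDS abundance) in this document: HeLa Kyoto cells arrested at G1/S by double thymidine block, proteins quantified by TMT10plex mass spectrometry in mild NP-40 versus SDS extracts, three biological replicates.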
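For thermal stability score vs G1/S (z-score of summed log2 fold changes over temperatures) in this document: synchronized HeLa Kyoto cells, proteins quantified by TMT10plex mass spectrometry, three biological replicates, mitosis taken 0.5 h after nocodazole release, G1/S directly after double thymidine block.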

Row | Substance | solubility change mitosis (log2) (HeLa Kyoto [1]) | thermal stability score (HeLa Kyoto [2]; [5]) | thermal stability score (HeLa Kyoto [2]; cell cycle stage: mitosis) | melting temperature (HeLa Kyoto [3]; cell cycle stage: G1/S) [°C] | melting temperature (HeLa Kyoto [3]; cell cycle stage: mitosis) [°C] | solubility in G1/S (log2) (HeLa Kyoto [4])
1 | MWLWEDQGGLLGPFSFLLLVLLLVTRSPVNACLLTGSLFVLLRVFSFEPVPSCRALQVLKPRDRISAIAHRGGSHDAPENTLAAIRQAAKNGATGVELDIEFTSDGIPVLMHDNTVDRTTDGTGRLCDLTFEQIRKLNPAANHRLRNDFPDEKIPTLREAVAECLNHNLTIFFDVKGHAHKATEALKKMYMEFPQLYNNSVVCSFLPEVIYKMRQTDRDVITALTHRPWSLSHTGDGKPRYDTFWKHFIFVMMDILLDWSMHNILWYLCGISAFLMQKDFVSPAYLKKWSAKGIQVVGWTVNTFDEKSYYESHLGSSYITDSMVEDCEPHF [GDE1] | -0.1 | 0.685 | -1.42 | 51.5 | 55.9 | 0.138
2 | MKFLLDILLLLPLLIVCSLESFVKLFIPKRRKSVTGEIVLITGAGHGIGRLTAYEFAKLKSKLVLWDINKHGLEETAAKCKGLGAKVHTFVVDCSNREDIYSSAKKVKAEIGDVSILVNNAGVVYTSDLFATQDPQIEKTFEVNVLAHFWTTKAFLPAMTKNNHGHIVTVASAAGHVSVPFLLAYCSSKFAAVGFHKTLTDELAALQITGVKTTCLCPNFVNTGFIKNPSTSLGPTLEPEEVVNRLMHGILTEQKMIFIPSSIAFLTTLERILPERFLAVLKRKISVKFDAVIGYKMKAQ [HSD17B11] | -0.138 | 0.073 | -3.33 | 55.1 | 54.8 | -0.334
3 | MASGRRAPRTGLLELRAGAGSGAGGERWQRVLLSLAEDVLTVSPADGDPGPEPGAPREQEPAQLNGAAEPGAGPPQLPEALLLQRRRVTVRKADAGGLGISIKGGRENKMPILISKIFKGLAADQTEALFVGDAILSVNGEDLSSATHDEAVQVLKKTGKEVVLEVKYMKDVSPYFKNSTGGTSVGWDSPPASPLQRQPSSPGPTPRNFSEAKHMSLKMAYVSKRCTPNDPEPRYLEICSADGQDTLFLRAKDEASARSWATAIQAQVNTLTPRVKDELQALLAATSTAGSQDIKQIGWLTEQLPSGGTAPTLALLTEKELLLYLSLPETREALSRPARTAPLIATRLVHSGPSKGSVPYDAELSFALRTGTRHGVDTHLFSVESPQELAAWTRQLVDGCHRAAEGVQEVSTACTWNGRPCSLSVHIDKGFTLWAAEPGAARAVLLRQPFEKLQMSSDDGASLLFLDFGGAEGEIQLDLHSCPKTIVFIIHSFLSAKVTRLGLLA [SNTA1] | -0.136 | -0.161 | 0.249 | 51.2 | 49.2 | 0.0927
4 | MTQQPLRGVTSLRFNQDQSCFCCAMETGVRIYNVEPLMEKGHLDHEQVGSMGLVEMLHRSNLLALVGGGSSPKFSEISVLIWDDAREGKDSKEKLVLEFTFTKPVLSVRMRHDKIVIVLKNRIYVYSFPDNPRKLFEFDTRDNPKGLCDLCPSLEKQLLVFPGHKCGSLQLVDLASTKPGTSSAPFTINAHQSDIACVSLNQPGTVVASASQKGTLIRLFDTQSKEKLVELRRGTDPATLYCINFSHDSSFLCASSDKGTVHIFALKDTRLNRRSALARVGKVGPMIGQYVDSQWSLASFTVPAESACICAFGRNTSKNVNSVIAICVDGTFHKYVFTPDGNCNREAFDVYLDICDDDDF [WDR45] | -0.0635 | -0.724 | -0.704 | 53.4 | 53.6 | -0.26
5 | MATPSAAFEALMNGVTSWDVPEDAVPCELLLIGEASFPVMVNDMGQVLIAASSYGRGRLVVVSHEDYLVEAQLTPFLLNAVGWLCSSPGAPIGVHPSLAPLAKILEGSGVDAKVEPEVKDSLGVYCIDAYNETMTEKLVKFMKCGGGLLIGGQAWDWANQGEDERVLFTFPGNLVTSVAGIYFTDNKGDTSFFKVSKKMPKIPVLVSCEDDLSDDREELLHGISELDISNSDCFPSQLLVHGALAFPLGLDSYHGCVIAAARYGRGRVVVTGHKVLFTVGKLGPFLLNAVRWLDGGRRGKVVVQTELRTLSGLLAVGGIDTSIEPNLTSDASVYCFEPVSEVGVKELQEFVAEGGGLFVGAQAWWWAFKNPGVSPLARFPGNLLLNPFGISITSQSLNPGPFRTPKAGIRTYHFRSTLAEFQVIMGRKRGNVEKGWLAKLGPDGAAFLQIPAEEIPAYMSVHRLLRKLLSRYRLPVATRENPVINDCCRGAMLSLATGLAHSGSDLSLLVPEIEDMYSSPYLRPSESPITVEVNCTNPGTRYCWMSTGLYIPGRQIIEVSLPEAAASADLKIQIGCHTDDLTRASKLFRGPLVINRCCLDKPTKSITCLWGGLLYIIVPQNSKLGSVPVTVKGAVHAPYYKLGETTLEEWKRRIQENPGPWGELATDNIILTVPTANLRTLENPEPLLRLWDEVMQAVARLGAEPFPLRLPQRIVADVQISVGWMHAGYPIMCHLESVQELINEKLIRTKGLWGPVHELGRNQQRQEWEFPPHTTEATCNLWCVYVHETVLGIPRSRANIALWPPVREKRVRIYLSKGPNVKNWNAWTALETYLQLQEAFGWEPFIRLFTEYRNQTNLPTENVDKMNLWVKMFSHQVQKNLAPFFEAWAWPIQKEVATSLAYLPEWKENIMKLYLLTQMPH [TCAF1] | -0.185 | 0.502 | 2.06 | 49.9 | 49.8 | -0.143
6 | MATLLSHPQQRPPFLRQAIKIRRRRVRDLQDPPPQMAPEIQPPSHHFSPEQRALLYEDALYTVLHRLGHPEPNHVTEASELLRYLQEAFHVEPEEHQQTLQRVRELEKPIFCLKATVKQAKGILGKDVSGFSDPYCLLGIEQGVGVPGGSPGSRHRQKAVVRHTIPEEETHRTQVITQTLNPVWDETFILEFEDITNASFHLDMWDLDTVESVRQKLGELTDLHGLRRIFKEARKDKGQDDFLGNVVLRLQDLRCREDQWYPLEPRTETYPDRGQCHLQFQLIHKRRATSASRSQPSYTVHLHLLQQLVSHEVTQHEAGSTSWDGSLSPQAATVLFLHATQKDLSDFHQSMAQWLAYSRLYQSLEFPSSCLLHPITSIEYQWIQGRLKAEQQEELAASFSSLLTYGLSLIRRFRSVFPLSVSDSPARLQSLLRVLVQMCKMKAFGELCPNTAPLPQLVTEALQTGTTEWFHLKQQHHQPMVQGIPEAGKALLGLVQDVIGDLHQCQRTWDKIFHNTLKIHLFSMAFRELQWLVAKRVQDHTTVVGDVVSPEMGESLFQLYISLKELCQLRMSSSERDGVLALDNFHRWFQPAIPSWLQKTYNEALARVQRAVQMDELVPLGELTKHSTSAVDLSTCFAQISHTARQLDWPDPEEAFMITVKFVEDTCRLALVYCSLIKARARELSSGQKDQGQAANMLCVVVNDMEQLRLVIGKLPAQLAWEALEQRVGAVLEQGQLQNTLHAQLQSALAGLGHEIRTGVRTLAEQLEVGIAKHIQKLVGVRESVLPEDAILPLMKFLEVELCYMNTNLVQENFSSLLTLLWTHTLTVLVEAAASQRSSSLASNRLKIALQNLEICFHAEGCGLPPKALHTATFQALQRDLELQAASSRELIRKYFCSRIQQQAETTSEELGAVTVKASYRASEQKLRVELLSASSLLPLDSNGSSDPFVQLTLEPRHEFPELAARETQKHKKDLHPLFDETFEFLVPAEPCRKAGACLLLTVLDYDTLGADDLEGEAFLPLREVPGLSGSEEPGEVPQTRLPLTYPAPNGDPILQLLEGRKGDREAQVFVRLRRHRAKQASQHALRPAP [UNC13D] | -0.0257 | -0.00435 | 0.185 | 51.5 | 51.4 | -0.0281
7 | MLERPPALAMPMPTEGTPPPLSGTPIPVPAYFRHAEPGFSLKRPRGLSRSLPPPPPAKGSIPISRLFPPRTPGWHQLQPRRVSFRGEASETLQSPGYDPSRPESFFQQSFQRLSRLGHGSYGEVFKVRSKEDGRLYAVKRSMSPFRGPKDRARKLAEVGSHEKVGQHPCCVRLEQAWEEGGILYLQTELCGPSLQQHCEAWGASLPEAQVWGYLRDTLLALAHLHSQGLVHLDVKPANIFLGPRGRCKLGDFGLLVELGTAGAGEVQEGDPRYMAPELLQGSYGTAADVFSLGLTILEVACNMELPHGGEGWQQLRQGYLPPEFTAGLSSELRSVLVMMLEPDPKLRATAEALLALPVLRQPRAWGVLWCMAAEALSRGWALWQALLALLCWLWHGLAHPASWLQPLGPPATPPGSPPCSLLLDSSLSSNWDDDSLGPSLSPEAVLARTVGSTSTPRSRCTPRDALDLSDINSEPPRGSFPSFEPRNLLSLFEDTLDPT [PKMYT1] | -0.332 | 0.535 | 0.495 | 48.7 | 49 | 0.406
8 | KPNA1 | -0.102 | 1.89 | 3.16 | 49 | 49.7 | 0.00375
9 | MIAAQLLAYYFTELKDDQVKKIDKYLYAMRLSDETLIDIMTRFRKEMKNGLSRDFNPTATVKMLPTFVRSIPDGSEKGDFIALDLGGSSFRILRVQVNHEKNQNVHMESEVYDTPENIVHGSGSQLFDHVAECLGDFMEKRKIKDKKLPVGFTFSFPCQQSKIDEAILITWTKRFKASGVEGADVVKLLNKAIKKRGDYDANIVAVVNDTVGTMMTCGYDDQHCEVGLIIGTGTNACYMEELRHIDLVEGDEGRMCINTEWGAFGDDGSLEDIRTEFDREIDRGSLNPGKQLFEKMVSGMYLGELVRLILVKMAKEGLLFEGRITPELLTRGKFNTSDVSAIEKNKEGLHNAKEILTRLGVEPSDDDCVSVQHVCTIVSFRSANLVAATLGAILNRLRDNKGTPRLRTTVGVDGSLYKTHPQYSRRFHKTLRRLVPDSDVRFLLSESGSGKGAAMVTAVAYRLAEQHRQIEETLAHFHLTKDMLLEVKKRMRAEMELGLRKQTHNNAVVKMLPSFVRRTPDGTENGDFLALDLGGTNFRVLLVKIRSGKKRTVEMHNKIYAIPIEIMQGTGEELFDHIVSCISDFLDYMGIKGPRMPLGFTFSFPCQQTSLDAGILITWTKGFKATDCVGHDVVTLLRDAIKRREEFDLDVVAVVNDTVGTMMTCAYEEPTCEVGLIVGTGSNACYMEEMKNVEMVEGDQGQMCINMEWGAFGDNGCLDDIRTHYDRLVDEYSLNAGKQRYEKMISGMYLGEIVRNILIDFTKKGFLFRGQISETLKTRGIFETKFLSQIESDRLALLQVRAILQQLGLNSTCDDSILVKTVCGVVSRRAAQLCGAGMAAVVDKIRENRGLDRLNVTVGVDGTLYKLHPHFSRIMHQTVKELSPKCNVSFLLSEDGSGKGAALITAVGVRLRTEASS [HK1] | -0.149 | -0.647 | -0.641 | 51.5 | 51.9 | -0.0302

Source: the supplement of paper PMC5998384
